Data as given in patent US9809653B2, “Anti-LAMP1 antibodies and antibody drug conjugates, and uses thereof” (SANOFI, priority 2012, dated 2017).
Numbering of substitutions follows the chain as printed. Where “and” joins values, the source holds several entries; their conditions need not be identical. Identical values can stand only once. Like-named read-outs stand apart in the source and are kept apart here.

Key:
hLAMP1_ΔGYQTI = molecular target: T1, hLAMP1_ΔGYQTI (Homo sapiens, UniProt P11279); test: Binding onto membrane-anchored human LAMP1 (293-F cells) by flow cytometry; conditions: pXL5626 hLAMP1_ΔGYQTI
T1 construct: expressed in transfected cells; host or cells: 293-F (HEK293-derived), transient transfection, plasmid pXL5626
T1 sequence (P11279 with tags, fused parts or gaps limits assumed): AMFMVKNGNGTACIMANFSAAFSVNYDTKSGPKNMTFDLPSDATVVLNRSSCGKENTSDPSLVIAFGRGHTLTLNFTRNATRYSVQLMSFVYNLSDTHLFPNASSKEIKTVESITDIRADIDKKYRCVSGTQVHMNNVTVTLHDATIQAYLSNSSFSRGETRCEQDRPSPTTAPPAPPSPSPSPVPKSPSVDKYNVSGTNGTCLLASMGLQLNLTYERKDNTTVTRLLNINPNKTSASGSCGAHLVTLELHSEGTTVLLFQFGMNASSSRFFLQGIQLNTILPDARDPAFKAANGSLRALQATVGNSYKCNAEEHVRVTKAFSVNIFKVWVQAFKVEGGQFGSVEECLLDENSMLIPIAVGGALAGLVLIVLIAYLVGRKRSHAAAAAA
Experimental: Different LAMP1 proteins were expressed at the cell membrane of HEK293 cells after transient expression from mammalian plasmids encoding the entire coding sequence of LAMP1 deleted of the intracellular lysosome-targeting motif GYQTI and substituted by a 5-Ala repeat sequence.
Two days post transfection cells were processed, analyzed by flow cytometry (Guava® easyCyte™ 8HT) as mentioned in example 4.7, and the mean fluorescence was recorded. This fluorescence represents a semi-quantitative assessment of binding.

[1] = molecular target: T2, recombinant human LAMP1 (29-382 of SEQ ID NO: 28) (Homo sapiens, UniProt P11279); test: ELISA on recombinant human LAMP1; type: binding
T2 construct: made in house; host or cells: HEK293 (293-F), transient expression, IMAC-purified
T2 sequence (P11279 with tags, fused parts or gaps): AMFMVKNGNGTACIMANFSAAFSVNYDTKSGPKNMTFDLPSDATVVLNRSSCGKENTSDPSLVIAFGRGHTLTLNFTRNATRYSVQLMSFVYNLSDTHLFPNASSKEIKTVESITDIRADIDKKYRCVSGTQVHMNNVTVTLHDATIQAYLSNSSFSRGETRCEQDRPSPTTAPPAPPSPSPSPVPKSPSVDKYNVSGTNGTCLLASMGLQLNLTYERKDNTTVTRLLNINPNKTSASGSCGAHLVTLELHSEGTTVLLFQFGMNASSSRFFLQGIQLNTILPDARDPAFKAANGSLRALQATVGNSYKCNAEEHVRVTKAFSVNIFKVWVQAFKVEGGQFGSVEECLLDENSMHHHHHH

[2] = molecular target: T3, cell surface LAMP1 on Patient-derived tumor xenografts and tumor cell lines (Homo sapiens, UniProt P11279); test: Antibody binding capacity (ABC) by FACS on patient-derived xenografts and tumor cell lines
T3 construct: endogenous in cells; host or cells: enzymatically dissociated patient-derived xenograft tumour cells (e.g. CR-IGR-034P, LUN-NIC-014P, BRE-IGR-0159) and tumour cell lines
T3 sequence (P11279 29-417): T1 sequence (P11279 with tags, fused parts or gaps limits assumed) with A385G, A386Y, A387Q, A388T, A389I
Experimental: Antibody binding capacity of antibody was determined using Mouse IgG Calibrator kit (Biocytex #7208) or Human IgG Calibrator Kit (Biocytex #CP010) according to the manufacturer's instructions.
The panel of tumor cells comprises Patient-derived tumor xenografts from different origins and tumor cell lines. FIG. 2 illustrates the expression profile and Table 4 summarizes the antibody binding capacity results.
The panel of tumor cells comprises Patient-derived tumor xenografts from different origins and tumor cell lines.

[3] = molecular target: T4, LAMP1 in FFPE colon adenocarcinoma PDX CR-LRB-010P and human breast carcinoma (Homo sapiens, UniProt P11279); test: IHC on FFPE tumor tissue, LAMP1 membrane reinforcement; conditions: FFPE samples
T4 construct: from tissue; host or cells: human tumoral and non-tumoral tissue sections and PDX tumour sections (frozen-OCT, AFA, FFPE)
T4 sequence (P11279 29-417): T1 sequence (P11279 with tags, fused parts or gaps limits assumed) with A385G, A386Y, A387Q, A388T, A389I
Excerpt: IHC analysis of tumor tissues from biobanks or from hospitals before or during patient treatment is routinely done with formalin-fixed paraffin-embedded (FFPE) samples. […] One of the reasons is probably the effect of the formalin fixative combined to the complexity of the protein. Samples processed in frozen OCT or AFA are not routinely prepared in hospitals. Therefore, there is a need to have a mAb that would allow complete and fast coverage of the FFPE tumor biobanks and hospital samples.
Rabbit polyclonal antibodies generated with peptides described in example 17.1.1 were tested by IHC on FFPE sample of colon adenocarcinoma patient derived xenograft CR-LRB-010P and human breast carcinoma. After antigen retrieval procedure and endogen biotins blocking steps, slides were incubated with the primary anti-antibody for 1 hour at 24° C. Negative controls were performed by omission of the primary antibody. The biotin free anti-rabbit UltraMap™ horseradish peroxidase (HRP) conjugate (760-4315, Ventana Medical Systems, Inc, USA) was used as secondary antibody system according to manufacturer's recommendations. A couterstaining step was done with hematoxylin (760-2037, Ventana Medical Systems, Inc, USA) and bluing reagent was applied (760-2037, Ventana Medical Systems, Inc, USA). Stained slides were dehydrated and coverslipped with cytoseal XYL (8312-4, Richard-Allan Scientific, USA).
As the same manner as in example 17.1.2, IHC screening was performed with the hybridoma supernatant to identify mouse monoclonal antibody showing LAMP1 membrane reinforcement on FFPE sample of colon adenocarcinoma patient derived xenograft CR-LRB-010P. The biotin free anti-mouse UltraMap™ horseradish peroxidase (HRP) conjugate (760-152, Ventana Medical Systems, Inc, USA) was used as secondary antibody system according to manufacturer's recommendations.

[4] = ELISA (Table 7), read-out: EC50
[5] = ELISA (Table 13), read-out: EC50 (nM) human LAMP1
[6] = ELISA (Table 21), read-out: EC50 obtained for murine hybridoma mAbs hLAMP1

B1: MAb1: murine monoclonal anti-LAMP1 antibody, VH SEQ ID NO: 1, VL SEQ ID NO: 5 (antibody, V domains shown)
VH: QVQLQQSGAELVKPGASVKMSCKASGYIFTNYNIHWVKKSPGQGLEWIGAIYPGNGDAPYSQKFKDKATLTADKSSSTTYMQLSRLTSEDSAVYYCVRANWDVAFAYWGQGTLVSVSA
VL: DIQMTQSPPSLSASLGGKVTITCKASQDIDRYMAWYQDKPGKGPRLLIHDTSTLQPGIPSRFSGSGSGRDYSFSISNLEPEDIATYYCLQYDNLWTFGGGTKLEIK
modifications: Antibody Fragment; antibody fragment
In the case of B1, the Binding call (hLAMP1_ΔGYQTI; Table 17 Experiment no1) is reported as “Binding”, the Mean fluorescence (hLAMP1_ΔGYQTI; Table 17 Experiment no1) is reported as 1748 and the Binding call (hLAMP1_ΔGYQTI; Table 17 Experiment no2) is reported as “Full binding”. The Mean fluorescence (hLAMP1_ΔGYQTI; Table 17 Experiment no2) was 551, the Binding call (hLAMP1_ΔGYQTI; Table 18) was “Binding” and the Mean fluorescence (hLAMP1_ΔGYQTI; Table 18) was 914. For the same molecule, the EC50 [1, 4] was 0.18 nM, the EC50 [1, 5] was 0.18 nM and the EC50 [1, 6] was 0.18 nM. The EC50 ([1]; ELISA, read-out: EC50 to LAMP1) was 0.16 nM and ~0.2 nM, the “Antibody Binding Capacity (ABC)” value ([2]; CR-IGR-034P/colorectal PDX) was 230,000 and the “Antibody Binding Capacity (ABC)” value ([2]; CR-LRB-003P/colorectal PDX) was 25 000. For the same molecule, the “Antibody Binding Capacity (ABC)” value ([2]; CR-LRB-010P/colorectal PDX) was 140,000, the “Antibody Binding Capacity (ABC)” value ([2]; Colo205/colon cell line) was 6,000 and the “Antibody Binding Capacity (ABC)” value ([2]; LS174T/colon cell line) was 6,000. The “Antibody Binding Capacity (ABC)” value ([2]; LUN-NIC-014/lung PDX) was 104,000, the “Antibody Binding Capacity (ABC)” value ([2]; LUN-NIC-025/lung PDX) was 33,000 and the “Antibody Binding Capacity (ABC)” value ([2]; OVA-IGR-0022/ovary PDX) was 67,000. The “Antibody Binding Capacity (ABC)” value ([2]; STO-IND-006/stomach PDX) was 90,000, the “Antibody Binding Capacity (ABC)” value ([2]; SW480/colon cell line) was 2,500 and the “LAMP1 membrane reinforcement in FFPE format by IHC” value [3] was “can not lead to the detection of LAMP1 reinforcement in FFPE format”.

B2: MAb2: murine monoclonal anti-LAMP1 antibody, VH SEQ ID NO: 8, VL SEQ ID NO: 12 (antibody, V domains shown)
VH: QVQLQQSAAELARPGASVKMSCKASGYTFTSYTMHWVKQRPGQGLEWIGYFNPSSGYPEYNQKFKDKTTLTADKSSNTAFIQLNSLTSEDSAVYYCSRGYYYGSRGYALDFWGQGASVTVSS
VL: NIVLTQSPVSLAVSLGQRATISCRASESVDINGNTFMHWYQQKPGQSPKLVIYAASNIESGVPARFSGSGSSTDFTFTIDPVEADDVATYYCQQNIEDPWTFGGGTKVEIK
modifications: antibod fragment; antibody fragment
For B2, the Binding call (hLAMP1_ΔGYQTI; Table 17 Experiment no1) was “binding”, the Mean fluorescence (hLAMP1_ΔGYQTI; Table 17 Experiment no1) was 1183 and the Binding call (hLAMP1_ΔGYQTI; Table 18) was “Binding”. The Mean fluorescence (hLAMP1_ΔGYQTI; Table 18) was 757, the EC50 [1, 4] was 0.25 nM and the EC50 [1, 5] was 0.25 nM. For the same molecule, the EC50 [1, 6] was 0.25 nM, the EC50 ([1]; ELISA, read-out: EC50 to LAMP1) was roughly 0.3 nM and the “Antibody Binding Capacity (ABC)” value ([2]; CR-IGR-034P/colorectal PDX) was 180,000. The “Antibody Binding Capacity (ABC)” value ([2]; CR-LRB-003P/colorectal PDX) was 22 000, the “Antibody Binding Capacity (ABC)” value ([2]; CR-LRB-010P/colorectal PDX) was 95,000 and the “Antibody Binding Capacity (ABC)” value ([2]; Colo205/colon cell line) was 4,000. For the same molecule, the “Antibody Binding Capacity (ABC)” value ([2]; LS174T/colon cell line) was 3,600, the “Antibody Binding Capacity (ABC)” value ([2]; LUN-NIC-014/lung PDX) was 102,000 and the “Antibody Binding Capacity (ABC)” value ([2]; LUN-NIC-025/lung PDX) was 27,000. The “Antibody Binding Capacity (ABC)” value ([2]; OVA-IGR-0022/ovary PDX) was 60,000, the “Antibody Binding Capacity (ABC)” value ([2]; STO-IND-006/stomach PDX) was 64,000 and the “Antibody Binding Capacity (ABC)” value ([2]; SW480/colon cell line) was 1,700. The “LAMP1 membrane reinforcement in FFPE format by IHC” value [3] was “can not lead to the detection of LAMP1 reinforcement in FFPE format”.
